This is an account of results in paper PMC3485041, “In Vitro Site Selection of a Consensus Binding Site for the Drosophila melanogaster Tbx20 Homolog Midline”.

To fix the notation:
T1: Midline T-box domain (MidTbx) (Drosophila melanogaster, UniProt Q8SYY8 171-393)
T1 sequence: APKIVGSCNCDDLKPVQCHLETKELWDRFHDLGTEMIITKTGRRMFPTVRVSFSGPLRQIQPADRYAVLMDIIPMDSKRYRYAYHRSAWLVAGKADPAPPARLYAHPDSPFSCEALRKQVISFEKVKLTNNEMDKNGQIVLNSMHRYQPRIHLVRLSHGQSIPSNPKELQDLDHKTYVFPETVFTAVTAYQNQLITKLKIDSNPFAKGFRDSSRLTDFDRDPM

B1: clone 50 (dsDNA)
DNA 1: CAGGTCAGTTCAGCGGATCCTGTCGAGGTGTGGCACTGTGAAGTTCGCGAGGAGGCGAATTCAGTGCAACTGCAGC
DNA 2: GCTGCAGTTGCACTGAATTCGCCTCCTCGCGAACTTCACAGTGCCACACCTCGACAGGATCCGCTGAACTGACCTG
B2: clone 43 (dsDNA)
DNA 1: CAGGTCAGTTCAGCGGATCCTGTCGGGGGGCTGGTGCGAAAGTGTGTAGTGGCAGGTCAGTTCAGCGGATCCTGTCG
DNA 2: CGACAGGATCCGCTGAACTGACCTGCCACTACACACTTTCGCACCAGCCCCCCGACAGGATCCGCTGAACTGACCTG
B3: clone 42 (dsDNA)
DNA 1: CAGGTCAGTTCAGCGGATCCTGTCGGGTGTTGATGGTGTTAACGCGCGAGGGAGGCGAATTCAGTGCAACTGCAGC
DNA 2: GCTGCAGTTGCACTGAATTCGCCTCCCTCGCGCGTTAACACCATCAACACCCGACAGGATCCGCTGAACTGACCTG
B4: clone 67 (dsDNA)
DNA 1: CAGGTCAGTTCAGCGGATCCTGTCGCTACGGAGGTGATTACACGCGAAATCGAGGCGAATTCAGTGCAACTGCAGC
DNA 2: GCTGCAGTTGCACTGAATTCGCCTCGATTTCGCGTGTAATCACCTCCGTAGCGACAGGATCCGCTGAACTGACCTG
B5: clone 57 (dsDNA)
DNA 1: CAGGTCAGTTCAGCGGATCCTGTCGACATGGGAGGCTGTTACGGCGCGAACGAGGCGAATTCAGTGCAACTGCAGC
DNA 2: GCTGCAGTTGCACTGAATTCGCCTCGTTCGCGCCGTAACAGCCTCCCATGTCGACAGGATCCGCTGAACTGACCTG
B6: clone 75 (dsDNA)
DNA 1: CAGGTCAGATCAGCGGATCCTGTCGCGACGCCTTGGGGGTGTCACGGCGCGGCAGGTCAGATCAGCGGATCCTGTCG
DNA 2: CGACAGGATCCGCTGATCTGACCTGCCGCGCCGTGACACCCCCAAGGCGTCGCGACAGGATCCGCTGATCTGACCTG
B7: clone 4 (dsDNA)
DNA 1: GCTGCAGTTGCACTGAATTCGCCTCCGTGCGTACGTGTCAATTCGTCAAGGCCGACAGGATCCGCTGAACTGACCTG
DNA 2: CAGGTCAGTTCAGCGGATCCTGTCGGCCTTGACGAATTGACACGTACGCACGGAGGCGAATTCAGTGCAACTGCAGC
B8: clone 2 (dsDNA)
DNA 1: GCTGCAGTTGCACTGAATTCGCCTCACCATCACACCAGCGAAGTGACAGTTCGACAGGATCCGCTGAACTGACCTG
DNA 2: CAGGTCAGTTCAGCGGATCCTGTCGAACTGTCACTTCGCTGGTGTGATGGTGAGGCGAATTCAGTGCAACTGCAGC
B9: clone 74 (dsDNA)
DNA 1: CAGGTCAGTTCAGCGGATCCTGTCGCCTTAAGGTGCGGGCAGACAGGTGTGGAGGCGAATTCAGTGCAACTGCAGC
DNA 2: GCTGCAGTTGCACTGAATTCGCCTCCACACCTGTCTGCCCGCACCTTAAGGCGACAGGATCCGCTGAACTGACCTG
B10: clone 72 (dsDNA)
DNA 1: GCTGCAGTTGCACTGAATTCGCCTCAGCGCCCAGTTGGTGTTAAGCCAGTCCGACAGGATCCGCTGAACTGACCTG
DNA 2: CAGGTCAGTTCAGCGGATCCTGTCGGACTGGCTTAACACCAACTGGGCGCTGAGGCGAATTCAGTGCAACTGCAGC
B11: mid.Najand (dsDNA)
DNA 1: CAAGGTGTCAAGGCG
DNA 2: CGCCTTGACACCTTG
B12: Tbx20.MacIndoe (dsDNA)
DNA 1: GGAGGTGTGAGGCGA
DNA 2: TCGCCTCACACCTCC
B13: mid.Najand Region 2 (dsDNA)
DNA 1: CAAGGTGTCAAGGAA
DNA 2: TTCCTTGACACCTTG
B14: mid.Najand Region 1 (dsDNA)
DNA 1: CACCCCCCCAAGGCG
DNA 2: CGCCTTGGGGGGGTG
B15: mid.Liu (dsDNA)
DNA 1: GGAAGTAGGTCAAG
DNA 2: CTTGACCTACTTCC
B16: T-site (Brachyury palindrome) (dsDNA)
DNA 1: AATTTCACACCTAGGTGTGAAATT
DNA 2: AATTTCACACCTAGGTGTGAAATT

For the first data set, the target named is T1, Midline T-box domain (MidTbx). The data set is described as follows: EMSA; 20 mM HEPES pH 7.9, 100 mM KCl, 0.2 mM EDTA, 0.2 mM EGTA, 20% glycerol, 0.1% NP40, 0.5 mM DTT, 10 mg/ml BSA, 8 ng/ul poly(dI-dC); room temperature 1 h; 15 fmol. The settings on record: protein: recombinant; tags: C-terminal 6xHis (pET-21a); label: 5' biotin (primer F); blunt.
For the molecule B1, the binding result is “binds”. B2: the binding result is listed as “binds”. In the case of B3, the binding result was “binds”. As to B4, the binding result is reported as “binds”. As to B5, the binding result is given as “binds”. On the same count and under the same terms, under B6 stands “binds”; under B7, “binds”. For B8, the binding result is recorded as “binds”. On to B9, for which the binding result is on record as “binds”. On to B10, for which the binding result is “binds”.

Staying with this data set, now noted: protein: recombinant; tags: C-terminal 6xHis (pET-21a); label: 5' biotin; blunt.
For B11, the binding result was “binds”. For B12, the binding result is on record as “binds”. As to B13, the binding result was “binds”. On the same count and under the same terms, under B14 stands “no binding”; under B15, “no binding”.

The same data set, now with this note: protein: recombinant; tags: C-terminal 6xHis (pET-21a); label: 5' biotin; blunt; self-complementary, 2 copies.
On to B16, for which the binding result is “binds”.
